{"source": "paper PMC2990581", "about": "“Molecular imaging of glioblastoma multiforme using anti-insulin-like growth factor-binding protein-7 single-domain antibodies” (British Journal of Cancer, 2010)", "key": {"[1]": {"molecular_target": "IGFBP7 in mouse vessels of orthotopic U87MG.EGFRvIII glioblastoma (Mus musculus, UniProt Q61581)", "sequence (Q61581 26-281)": "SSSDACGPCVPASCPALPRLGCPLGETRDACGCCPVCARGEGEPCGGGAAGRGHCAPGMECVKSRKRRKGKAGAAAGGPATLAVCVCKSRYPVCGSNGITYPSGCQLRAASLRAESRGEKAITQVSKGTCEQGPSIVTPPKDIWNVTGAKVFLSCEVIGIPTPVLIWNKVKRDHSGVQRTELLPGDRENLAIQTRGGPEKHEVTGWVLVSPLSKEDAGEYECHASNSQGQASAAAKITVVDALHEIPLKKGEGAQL", "test": "cell-based or functional assay"}, "[2]": {"molecular_target": "T1, IGFBP7 in human glioblastoma multiforme tissue (Homo sapiens, UniProt Q16270)", "T1 construct": "source: endogenous, frozen human GBM tissue sections", "test": "immunostaining of cells or tissue; frozen human or mouse brain tumour sections fixed in methanol; sdAb 4.43 (1:100 of 1 mg/ml) for 3 h at RT; detected with anti-c-myc antibody and alexa 647 secondary", "details": "one partner purified"}, "[3]": {"molecular_target": "T2, recombinant human insulin-like growth factor-binding protein 7 (IGFBP7), R&D Systems (human) (UniProt Q16270)", "T2 sequence": "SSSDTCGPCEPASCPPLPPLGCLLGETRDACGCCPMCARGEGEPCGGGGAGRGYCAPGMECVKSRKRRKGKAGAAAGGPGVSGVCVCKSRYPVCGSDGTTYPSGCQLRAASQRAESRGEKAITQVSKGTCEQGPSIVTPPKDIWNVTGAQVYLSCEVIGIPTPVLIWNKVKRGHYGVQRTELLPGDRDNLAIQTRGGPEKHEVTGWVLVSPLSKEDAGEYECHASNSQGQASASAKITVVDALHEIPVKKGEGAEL", "test": "SPR; Biacore 3000; ~1400 RU recombinant human IGFBP7 amine-coupled on a CM5 chip, ovalbumin as reference; sdAb flowed at 25-200 nM; 25°C; 10 mM HEPES pH 7.4, 150 mM NaCl, 3 mM EDTA, 0.005% P20; 40 μl/min; 1:1 kinetic fit of the 25 nM data, steady-state affinity model and Scatchard plot of the equilibrium data"}}}
{"binder": "anti-IGFBP7 single-domain antibody (sdAb) 4.43 (VHH, VHH isolated from an immune llama phage display library; For in vivo imaging the same sdAb was labelled with Cy5.5 succinimidyl ester (dye/antibody ratio of one) or conjugated to PEGylated Fe3O4 nanoparticles; also called anti-IGFBP7 sdAb; source: expressed periplasmically (vector pSJF2), purified by IMAC; not shown: c-Myc, C-terminal, kept) VHH: QVKLEESGGGLVQAGGSLRLSCAASGRTSRRYAMGWFRQAPGKEREFVAGISRSGDGTHYAYSVKGRFTISRDNAANTVELQMNSLKPEDTAVYFCAAARTAFYYYGNDYNYWGQGTQVTVSS", "values": [{"measurement": "brain tumour fluorescence signal by in vivo optical imaging 24 h after i.v. injection of 50 μg anti-IGFBP7 sdAb-Cy5.5, against negative control (NC) sdAb-Cy5.5", "setting": "[1]", "value": 6, "unit": "fold"}, {"measurement": "binding result", "setting": "[2]", "value": "binds"}, {"measurement": "Kd", "setting": "[3]", "value": 20, "unit": "nM"}, {"measurement": "koff", "setting": "[3]", "value": 0.0013, "unit": "s⁻¹"}]}
